The target in the test is freshly isolated human LDL (human). The experiment in a line: ELISA. Background: An ELISA detects its analyte on a solid surface through an enzyme-linked reagent.

B1: rabbit SAMD1 fragment from a.a. 238 to the C-terminus end at a.a. 550 (domain or fragment)
chain: QQPQPPPEGGAARAGGPARPVSLREVVRYLGGSSGAGGRLTRGRVQGLLEEEAAARGRLERTRLGALALPRGDRPGRAPPAASARAARNKRAGEERVLEKEEEEEEEEDDEDDDDDVVSEGSEVPESDRPAGAQHHQLNGGERGPQTAKERAKEWSLCGPHPGQEEGRGPAAGSGTRQVFSMAALSKEGGSASSTTGPDSPSPVPLPPGKPALPGADGTPFGCPAGRKEKPADPVEWTVMDVVEYFTEAGFPEQATAFQEQEIDGKSLLLMQRTDVLTGLSIRLGPALKIYEHHIKVLQQGHFEDDDPEGFLG
As a reminder, the Kd is the free concentration of one partner at which half of the binding sites on the other are occupied at equilibrium, for simple one-to-one binding. Read a low Kd as higher affinity. As to B1, the Kd turned out to be 15 nM.

These data come from article doi:10.1101/2021.09.12.459413.
